Sequences and labels used below:
B1: M125A: CfEcR-DEF LBD substitution mutant, Methionine (M) to Alanine (A) (protein, listed as Choristoneura fumiferana)
chain: LTANQQFLIARLIWYQDGYEQPSDEDLKRITQTWQQADDENEESDTPFRQITEMTILTVQLIVEFAKGLPGFAKISQPDQITLLKACSSEVMMLRVARRYDAASDSVLFANNQAYTRDNYRKAGAAYVIEDLLHFCRCMYSMALDNIHYALLTAVVIFSDRPGLEQPQLVEEIQRYYLNTLRIYILNQLSGSARSSVIYGKILSILSELRTLGMQNSNMCISLKLKNRKLPPFLEEIWDV
B2: R95A/A110P: CfEcR-DEF LBD double mutant, R95A and A110P (protein, listed as Choristoneura fumiferana)
chain: B1 chain with R95A, A110P, A125M
B3: L230A: CfEcR-DEF LBD substitution mutant, Leucine (L) to Alanine (A) (protein, listed as Choristoneura fumiferana)
chain: B1 chain with A125M, L230A
B4: L223A: CfEcR-DEF LBD substitution mutant, Leucine (L) to Alanine (A) (protein, listed as Choristoneura fumiferana)
chain: B1 chain with A125M, L223A
B5: Q21A: CfEcR-DEF LBD substitution mutant, Glutamine (Q) to Alanine (A) (protein, listed as Choristoneura fumiferana)
chain: B1 chain with Q21A, A125M
B6: F48A: CfEcR-DEF LBD substitution mutant, Phenylalanine (F) to Alanine (A) (protein, listed as Choristoneura fumiferana)
chain: B1 chain with F48A, A125M
B7: L234A: CfEcR-DEF LBD substitution mutant, Leucine (L) to Alanine (A) (protein, listed as Choristoneura fumiferana)
chain: B1 chain with A125M, L234A
B8: I51A: CfEcR-DEF LBD substitution mutant, Isoleucine (I) to Alanine (A) (protein, listed as Choristoneura fumiferana)
chain: B1 chain with I51A, A125M
B9: W238A: CfEcR-DEF LBD substitution mutant, Tryptophan (W) to Alanine (A) (protein, listed as Choristoneura fumiferana)
chain: B1 chain with A125M, W238A
B10: G121R: DmEcR-CDEF LBD substitution mutant, Glycine (G) to Arginine (R) (protein)
chain: LTYNQLAVIYKLIWYQDGYEQPSEEDLRRIMSQPDENESQTDVSFRHITEITILTVQLIVEFAKGLPAFTKIPQEDQITLLKACSSEVMMLRMARRYDHSSDSIFFANNRSYTRDSYKMARMADNIEDLLHFCRQMFSMKVDNVEYALLTAIVIFSDRPGLEKAQLVEAIQSYYIDTLRIYILNRHCGDSMSLVFYAKLLSILTELRTLGNQNAEMCFSLKLKNRKLPKFLEEIWDV
modifications: Drosophila melanogaster
B11: N213A: DmEcR-CDEF LBD substitution mutant, Asparagine (N) to Alanine (A) (protein)
chain: B10 chain with R121G, N213A
modifications: Drosophila melanogaster
B12: C217S: DmEcR-CDEF LBD substitution mutant, Cysteine (C) to Serine (S) (protein)
chain: B10 chain with R121G, C217S
modifications: Drosophila melanogaster
B13: A107P: DmEcR-CDEF LBD substitution mutant, Alanine (A) to Proline (P) (protein)
chain: B10 chain with A107P, R121G
modifications: Drosophila melanogaster
B14: C217A: DmEcR-CDEF LBD substitution mutant, Cysteine (C) to Alanine (A) (protein)
chain: B10 chain with R121G, C217A
modifications: Drosophila melanogaster
B15: G121L: DmEcR-CDEF LBD substitution mutant, Glycine (G) to Leucine (L) (protein)
chain: B10 chain with R121L
modifications: Drosophila melanogaster

Numbering of substitutions follows the chain as printed. In names and notes the source's numbering stands.

One test relates to CfEcR-DEF. As to the kind of experiment: GAL4/mutant CfEcR-DEF + VP16/LmUSP-EF GAL4-driven luciferase reporter transactivation in NIH3T3 cells. Particulars: 2.5 μM GS™-E non-steroidal ligand; NIH3T3 cells; relative to Gal4/wild-type CfEcR-DEF switch activity. The format is cell-based, Choristoneura fumiferana. Here is the method:
DNAs corresponding to the various switch constructs outlined in Example 1, specifically switches 1.1-1.13, were transfected into mouse NIH3T3 cells (ATCC) or L57 cells (Dr. Peter Cherbas; Indiana University) as follows. Standard methods for culture and maintenance of the cells were followed. […] Superfect™ (Qiagen Inc.) was used for 3T3 cells and Lipofectamine™ (LifeTechnologies) was used for L57 cells as the transfection reagents. For 12-well plates, 4 μl of Superfect™ or Lipofectamine™ was mixed with 100 μl of growth medium. One μg of reporter construct and 0.25 μg of each receptor construct of the receptor pair to be analyzed were added to the transfection mix. […] The cells were harvested and reporter activity was assayed.
Cells were harvested 40 hours after adding ligands. […] Twenty μl of lysate were assayed.
Briefly, Applicants mutated amino acid residues predicted to be critical for ecdysteroid binding into alanine and created GAL4/mutantCfEcR-DEF cDNA gene expression cassettes as described in Example 1 above using the Quikchange PCR-mediated site-directed mutagenesis kit (Stratagene, La Jolla, Calif.). The mutated and the WT cDNAs were tested in GAL4-driven luciferase reporter assays.
(§1) DNAs corresponding to the various switch constructs outlined in Example 1, specifically switches 1.1-1.2, were transfected into mouse NIH3T3 cells (ATCC) as follows. […] Two μl of Superfect™ was mixed with 100 μl of growth medium and 50 ng of either GAL4/wild-type EcR or Gal4/mutant EcR cassette, 50 ng of VP16/LmUSP-EF and 200 ng of pFRLuc were added to the transfection mix. […] The cells were harvested and reporter activity was assayed as described above.
(In a reporter assay the amount or activity of a reporter protein is the signal.)
As to B1, the “Fold increase over WT, 2.5 μM GS™-E” value was 0.005 fold.
Still for that read-out and setting: to B2 belongs 0.4 fold; to B3, 0.001 fold.
On the same count and under the same terms, to B4 belongs 0.118 fold.
Same read-out and setting: to B5 belongs 0.32 fold.
Take B6: the “Fold increase over WT, 2.5 μM GS™-E” value is on record as 0.007 fold.
The same measure, in the same setting: under B7 stands 0.001 fold; under B8, 0.003 fold; under B9, 0.002 fold.

Still in this test, the particulars now being: 2.5 μM PonA steroidal ligand; NIH3T3 cells; relative to Gal4/wild-type CfEcR-DEF switch activity.
Turning to B1, the “Fold increase over WT, 2.5 μM PonA” value is reported as 0.007 fold.
On to B2, for which the “Fold increase over WT, 2.5 μM PonA” value amounted to 0.007 fold.
Still for that read-out and setting: to B3 belongs 0.006 fold; to B4, 0.007 fold; to B5, 0.37 fold.
On the same count and under the same terms, under B6 stands 0.007 fold; under B7, 0.006 fold.
On to B8, for which the “Fold increase over WT, 2.5 μM PonA” value was 0.004 fold.
The same measure, in the same setting: under B9 stands 0.013 fold.

In another test the test system is DmEcR-CDEF. As to the kind of experiment: VP16/DmEcR-CDEF wild-type and mutants, 6xEcRE β-gal reporter transactivation in insect L57 cells. The format is cell-based, Drosophila melanogaster. Particulars: 1 μM 20-hydroxyecdysone, VP16/DmEcR-CDEF. The procedure: The wild-type and mutant DmEcR-CDEF receptors were also used to make VP16/wild-type or mutantDmEcR-CDEF constructs as described in Example 1.10 and 1.11. VP16DmEcR-CDEF and a 6×EcREβ-gal reporter were transfected into L57 cells and the transfected cells were treated with 1 uM 20-hydroxyecdysone (20E) or GS™-E. The cells were harvested, lysed and the reporter activity was measured as described above in Example 6. The fold induction was calculated by dividing reporter activity in the presence of ligand with the reporter activity in the absence of ligand. From the fold induction, percent wild-type activity was calculated for each mutant.
Turning to B10, the “Fold increase over WT, 1 μM 20-hydroxyecdysone” value was determined as 0.5 fold.
Consider B11, for which the “Fold increase over WT, 1 μM 20-hydroxyecdysone” value is 0.01 fold.
In the case of B12, the “Fold increase over WT, 1 μM 20-hydroxyecdysone” value is 0.39 fold.
The same measure, in the same setting: to B13 belongs 0.09 fold; to B14, 0.48 fold.
Same read-out and setting: to B15 belongs 0.09 fold.

The same test, now with this note: 1 μM GS™-E, VP16/DmEcR-CDEF.
Consider B10, for which the “Fold increase over WT, 1 μM GS™-E” value is 0.92 fold.
For B11, the “Fold increase over WT, 1 μM GS™-E” value was found to be 0.08 fold.
Turning to B12, the “Fold increase over WT, 1 μM GS™-E” value was 0.92 fold.
Still for that read-out and setting: to B13 belongs 0.9 fold; to B14, 0.70 fold.
Still for that read-out and setting: under B15 stands 0.15 fold.

The same test, now with this note: 20E, DmEcR mutants.
For the molecule B11, the “steroid activity (summary of Table 14)” value was “lost sensitivity”.
The same measure, in the same setting: under B13 stands “loss of most steroid activity”; under B14, “reduced”; under B15, “lost sensitivity”.

Staying with this test, now noted: 20E, VP16/DmEcR-CDEF, versus wild-type.
Take B10: the “reduction in steroid activity” value is given as 50%.
Same read-out and setting: to B12 belongs 61%.

The same test, now with this note: GS™-E, DmEcR mutants.
With B10, the “non-steroid activity (summary of Table 14)” value was “minimal effect”.
The same measure, in the same setting: under B11 stands “lost sensitivity”; under B12, “minimal effect”.
The same measure, in the same setting: under B13 stands “very little effect”.
Same read-out and setting: to B14 belongs “reduced”.
Consider B15, for which the “non-steroid activity (summary of Table 14)” value is recorded as “lost sensitivity”.

A further test has as its system DmEcR-CDEF. As to the kind of experiment: GAL4/DmEcR-CDEF wild-type and mutants, luciferase reporter transactivation in NIH3T3 cells. The format is cell-based, Drosophila melanogaster. Particulars: 2.5 μM GS™-E, GAL4/DmEcR-CDEF + VP16/LmUSP-EF + pFRLUC, 48 hours. The procedure: as §1
Applicants mutated amino acid residues predicted to be critical for ecdysteroid binding and created GAL4/mutantDmEcR-CDEF cDNA gene expression cassettes as described in Example 1 above using PCR-mediated site-directed mutagenesis. The mutated and the WT cDNAs corresponding to the various switch constructs outlined above in Examples 1.8 and 1.9 were made and tested in reporter assays in NIH3T3 cells as described in Example 2. Each GAL4/DmEcR-CDEF construct, VP16/LmUSP-EF, and pFRLUC were transfected into NIH3T3 cells and the transfected cells were treated with 2.5 μM GS-™E or Ponasterone A. The cells were harvested and the reporter activity was measured at 48 hours after addition of ligand. The fold induction was calculated by dividing reporter activity in the presence of ligand with the reporter activity in the absence of ligand. From the fold induction, percent wild-type activity was calculated for each mutant.
As for B10, the “Fold increase over WT, 2.5 μM GS™-E” value is 0.0075 fold.
The same measure, in the same setting: to B12 belongs 0.014 fold; to B14, 0.008 fold; to B15, 0.008 fold.

The test is the same for the next values; noted with them: 2.5 μM Ponasterone A, GAL4/DmEcR-CDEF + VP16/LmUSP-EF + pFRLUC, 48 hours.
For B10, the “Fold increase over WT, 2.5 μM Ponasterone A” value came to 0.05 fold.
For B12, the “Fold increase over WT, 2.5 μM Ponasterone A” value amounted to 0.0064 fold.
Still for that read-out and setting: under B14 stands 0.022 fold; under B15, 0.001 fold.

Values taken from patent US8715959B2, “Substitution mutant receptors and their use in a nuclear receptor-based inducible gene expression system” (priority 2001, dated 2014).
